Experimental findings from patent publication US20210395344A1 are described below.

To fix the notation:
B1: SARS-CoV-2 variant 1-31 (antibody, V domains shown)
VH: EVQLLESGGGLVQPGGSLRLSCAASGFTFSSYAMNWVRQAPGKGLEWVSAISGSGGSTFYADSVKGRFTISRDNSKNTLYLQMNSLRAEDTAVYYCTRPPYGDYGDYWGQGTLVTVSS
VL: QSALTQPASVSGSPGQSITISCTGTSSDVGKYNLVSWYQQHPGKAPKLMIYEGSQRPSGVSNRFSGSKSGNTASLTISGLQAEDEADYYCCSYAGSRTPVVFGGGTKLTVL
B2: SARS-CoV-2 variant 1-5 (antibody, V domains shown)
VH: EVQLLESGGGLVQPGGSLRLSCAASGFTFSSQAMSWVRQAPGKGLEWVSAISGSGGGTYYADSVKGRFTISRDNSKNTLYLQMNSLRAEDTAVYYCAKDRRFGEFDPWGQGTLVTVSS
VL: QSALTQPASVSGSPGQSITISCTGTSSGVGSYNLVSWYQQHPGKAPKLMIYEASKRPSGVSNRFSGSKSGNTASLTISGLQAEDEADYYCCSYAGSYTFAVFGGGTKLTVL
B3: SARS-CoV-2 variant 1-30 (antibody, V domains shown)
VH: EVQLLESGGGLVQPGGSLRLSCAASGFTFSSYAMTWVRQAPGKGLEWVSAISGSGGSTFYADSVKGRFTISRDNSKNTLYLQMNSLRAEDTAVYYCTRPPYGDYGDYWGQGTLVTVSS
VL: QSALTQPASVSGSPGQSITISCTGTSRDVGSYNLVSWYQQHPGKAPKLMIYEGTKRPSGVSNRFSGSKSGNTASLTISGLQAEDEADYYCCSYAGSRTPVVFGGGTKLTVL
B4: SARS-CoV-2 variant 1-4 (antibody, V domains shown)
VH: EVQLLESGGGLVQPGGSLRLSCAASGFTFSSQAMSWVRQAPGKGLEWVSAISGSGGGTYYADSVKGRFTISRDNSKNTLYLQMNSLRAEDTAVYYCAKDRRFGEFDPWGQGTLVTVSS
VL: QSALTQPASVSGSPGQSITISCTGTSSDVGTYNLVSWYQQHPGKAPKLMIYEGSQRPSGVSNRFSGSKSGNTASLTISGLQAEDEADYYCCSYAGSSSFVVFGGGTKLTVL
B5: SARS-CoV-2 variant 1-28 (antibody, V domains shown)
VH: EVQLLESGGGLVQPGGSLRLSCAASGFTFSSYGMSWVRQAPGKGLEWVSAISGSGGGTYYADSVKGRFTISRDNSKNTLYLQMNSLRAEDTAVYYCASSSSWQFDYWGQGTLVTVSS
VL: QSALTQPASVSGSPGQSITISCTGTSSGVGSYNLVSWYQQHPGKAPKLMIYEGSQRPSGVSNRFSGSKSGNTASLTISGLQAEDEADYYCCSYAGSSTHYVFGGGTKLTVL
B6: SARS-CoV-2 variant 1-3 (antibody, V domains shown)
VH: EVQLLESGGGLVQPGGSLRLSCAASGFTFSSQAMSWVRQAPGKGLEWVSAISGSGGGTYYADSVKGRFTISRDNSKNTLYLQMNSLRAEDTAVYYCAKDRRFGEFDPWGQGTLVTVSS
VL: QSALTQPASVSGSPGQSITISCTGISSDVGSYNLVSWYQQHPGKAPKLMIYEGTKRPSGVSNRFSGSKSGNTASLTISGLQAEDEADYYCCSYAGSSSFVVFGGGTKLTVL
B7: SARS-CoV-2 variant 1-32 (antibody, V domains shown)
VH: EVQLLESGGGLVQPGGSLRLSCAASGFTFSSYAMYWVRQAPGKGLEWVSAISGSGGSTFYADSVKGRFTISRDNSKNTLYLQMNSLRAEDTAVYYCTRPPYGDYGDYWGQGTLVTVSS
VL: QSALTQPASVSGSPGQSITISCTGTSSDVGGYNLVSWYQQHPGKAPKLMIYEGNKRPSGVSNRFSGSKSGNTASLTISGLQAEDEADYYCCSYAGSSTFPVVFGGGTKLTVL

This assay deals with COVID S1 RBD Fc fusion (Antigen 1) (SARS-CoV-2), P0DTC2. Kind of assay: phage ELISA. The conditions noted are these: remark: other sources report otherwise. On the technique in general: An ELISA detects its analyte on a solid surface through an enzyme-linked reagent.
Consider B1, for which the specificity ELISA, fold over background (fold over background) was determined as 1.3 and the specificity ELISA, percent binding relative to Acro S1 came out at 4.3%.

Molecule B2 had a specificity ELISA, fold over background (fold over background) of 1.6 and a specificity ELISA, percent binding relative to Acro S1 of 108%.

B3 returned a specificity ELISA, fold over background (fold over background) of 1.7 and a specificity ELISA, percent binding relative to Acro S1 of 9.8%.

In the case of B4, the specificity ELISA, fold over background (fold over background) was found to be 1.4 and the specificity ELISA, percent binding relative to Acro S1 was 138%.

In the case of B5, the specificity ELISA, fold over background (fold over background) worked out at 1.1 and the specificity ELISA, percent binding relative to Acro S1 turned out to be 113%.

B6 yielded a specificity ELISA, fold over background (fold over background) of 1.8 and a specificity ELISA, percent binding relative to Acro S1 of 109%.

In turn, B7 came in with a specificity ELISA, fold over background (fold over background) of 1.5 and a specificity ELISA, percent binding relative to Acro S1 of 13.1%.
